# Publication PMC9150345, “Trimeric complexes of Antp-TBP with TFIIEβ or Exd modulate transcriptional activity” (Hereditas, 2022)
# T1: hTBPΔQ40, hTBP lacking the Poly-glutamine region (amino acids 50-102), fused to the N-terminal fragment of … (human, UniProt P20226 1-339, lacking the Poly-glutamine region (amino acids 50-102))
# T1 construct: made by site-directed mutagenesis; source: HEK293, transfected, in living cells
# T1 sequence (looked up): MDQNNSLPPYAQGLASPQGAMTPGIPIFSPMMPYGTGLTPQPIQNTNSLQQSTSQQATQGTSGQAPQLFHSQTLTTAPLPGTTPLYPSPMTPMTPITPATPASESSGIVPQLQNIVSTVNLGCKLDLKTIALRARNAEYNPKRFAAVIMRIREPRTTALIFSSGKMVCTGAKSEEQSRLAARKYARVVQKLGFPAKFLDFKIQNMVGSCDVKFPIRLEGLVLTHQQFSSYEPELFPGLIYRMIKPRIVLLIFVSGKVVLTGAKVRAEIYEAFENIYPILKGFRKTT
# Columns and labels:
# [1] = biological target: T2, TATA-binding protein (hTBP), fused to the N-terminal fragment of Venus (human, UniProt P20226 1-339); assay: split reporter (BiFC, NanoBiT); BiFC in HEK293 cells co-transfected with VC- and VN- constructs and pCAG-mCherry; read 48 h after transfection; interaction percent = green cells per 100 red cells; details: partners not purified
# T2 construct: also called VNTBP; source: HEK293, transfected, in living cells
# [2] = biological target: T1, hTBPΔQ40, hTBP lacking the …; assay: as above; details: partners not purified
binder,measurement,setting,value
"AntpΔHD, Antp without the YPWM motif and homeodomain (amino acids 245-363), fused to the C-terminal fragment of Venus (natural protein, Drosophila, UniProt P02833 1-378, looked up, Antennapedia (Antp) without the HD (amino acids 245-363); the text calls it the YPWM-HD deletion; source: HEK293, transfected, in living cells) MTMSTNNCESMTSYFTNSYMGADMHHGHYPGNGVTDLDAQQMHHYSQNANHQGNMPYPRFPPYDRMPYYNGQGMDQQQQHQVYSRPDSPSSQVGGVMPQAQTNGQLGVPQQQQQQQQQPSQNQQQQQAQQAPQQLQQQLPQVTQQVTHPQQQQQQPVVYASCKLQAAVGGLGMVPEGGSPPLVDQMSGHHMNAQMTLPHHMGHPQAQLGYTDVGVPDVTEVHQNHHNMGMYQQQSGVPPVGAPPSGGEGDEITPPNSPQ",percent of transfected cells showing BiFC,[1],74%
"Antennapedia (Antp), fused to the C-terminal fragment of Venus (natural protein, Antennapedia (Antp) Hox protein; also called VCAntp; Antp WT; source: HEK293, transfected, in living cells) not shown",percent of transfected cells showing BiFC,[2],41%
same,percent of transfected cells showing BiFC,[1],77%
"AntpQ5, Antp with the 5-polyQ stretch mutagenized to alanines (amino acids 123-127), fused to the C-terminal fragment of Venus (natural protein, Antennapedia (Antp) in which the 5-polyQ stretch was mutagenized to alanines (amino acids 123-127); source: HEK293, transfected, in living cells) not shown",percent of transfected cells showing BiFC,[1],74%
"AntpΔPolyQ, Antp with deletion of PolyQ regions (amino acids 66-136), fused to the C-terminal fragment of Venus (natural protein, Antennapedia (Antp) with deletion of PolyQ regions (amino acids 66-136); source: HEK293, transfected, in living cells) not shown",percent of transfected cells showing BiFC,[1],51%
"AntpQ6, Antp with deletion of three glutamines (amino acids 150-152) and substitution of three glutamines to alanines (amino acids 153-155), fused to the … (natural protein, Antennapedia (Antp) with deletion of three glutamines (150-152) and three glutamines changed to alanines (153-155); source: HEK293, transfected, in living cells) not shown",percent of transfected cells showing BiFC,[1],63%
"AntpΔN, Antp lacking the N-terminal region (amino acids 1-269), fused to the C-terminal fragment of Venus (domain or fragment, Antennapedia (Antp) lacking the N-terminal region (amino acids 1-269); source: HEK293, transfected, in living cells) not shown",percent of transfected cells showing BiFC,[2],14%
same,percent of transfected cells showing BiFC,[1],51%
"AntpQ9, Antp with deletion of the 9-polyQ stretch (amino acids 110-118), fused to the C-terminal fragment of Venus (natural protein, Antennapedia (Antp) with deletion of the 9-polyQ stretch (amino acids 110-118); source: HEK293, transfected, in living cells) not shown",percent of transfected cells showing BiFC,[1],57%
